The values below come from patent US20240109968A1 (NEW YORK UNIVERSITY, published 2024).

The test has as its target T1, human galectin-9 CRD2 domain (human, UniProt O00182 227-355, limits assumed).
T1 construct: domain: CRD2; also called human CRD2 domain of galectin-9
Kind of test: ELISA; antibody titrated over immobilized Galectin-9 CRD2, saturation curve.

T1 sequence (O00182 227-355 limits assumed): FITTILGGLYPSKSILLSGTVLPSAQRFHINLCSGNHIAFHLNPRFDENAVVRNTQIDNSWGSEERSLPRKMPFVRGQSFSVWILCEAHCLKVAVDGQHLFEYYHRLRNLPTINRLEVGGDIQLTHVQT

B1: anti-Galectin-9 antibody G9.2-17 (IgG4) (antibody, V domains shown)
VH: EVQLVESGGGLVQPGGSLRLSCAASGFTVSSSSIHWVRQAPGKGLEWVAYISSSSGYTYYADSVKGRFTISADTSKNTAYLQMNSLRAEDTAVYYCARYWSYPSWWPYRGMDYWGQGTLVTVSS
VL: DIQMTQSPSSLSASVGDRVTITCRASQSVSSAVAWYQQKPGKAPKLLIYSASSLYSGVPSRFSGSRSGTDFTLTISSLQPEDFATYYCQQSSTDPITFGQGTKVEIKR
notes: Human IgG4 with S228P (EU); also called G9.2-17(Ig4); G9.2-17 hIgG4 Fab Arm Exchange mut
B1 had a Kd of less than 1 nM.
